# Tests used:
# sweet potato discs [1] = assay: Maceration activity, sweet potato disc decay at 30° C.; assay type: biochemical
# Text: Maceration activity can be measured, for example, by immersing a sweet potato disc in the enzyme solution, and measuring the time elapsed until the sweet potato disc uniformly decays in the enzyme solution as a result of insoluble pectin being degraded by enzymatic action. In the alternative, other publicly-known methods may be used.
# A column 6 mm in diameter is removed from the center of a sweet potato using a cork borer. After using a knife to cut sweet potato discs about 0.3 mm thick, the discs are immersed for 60 seconds in 70% ethanol and then rinsed with distilled water. Into a test tube are placed 300 μL of enzyme solution with pH adjusted to 3.5 using HCl, and 200 μL of 50 mM acetate buffer (pH 3.5), and after these are mixed, a constant temperature is set at 30° C., and 3 of the above sweet potato discs are placed therein, and a reaction is initiated. Every 15 minutes after the reaction starts, agitation is carried out for 10 seconds using a test tube mixer, and the degree of decay is visually observed. The strength of the maceration activity is expressed by the reciprocal of the time needed for 2 of the 3 sweet potato discs to almost uniformly decay (Reference literature: Toshihiko Suganuma, Tetsuro Fukumoto, Youko Ikemizu, Katsuyuki Nakama, Shigeo Fujimoto, and Tomonori Nagahama, Bulletin of the Faculty of Agriculture, Kagoshima University, 37, 89-98, Mar. 16, 1987).
# A column 6 mm in diameter was removed from the center of a sweet potato (about 500 g) using a cork borer. After using a knife to cut sweet potato discs about 0.3 mm thick, the discs were immersed for 60 seconds in 70% ethanol and then rinsed with distilled water. Into a test tube were placed 300 μL of purified enzyme solution (1.30 μg/mL) and 200 μL of a buffer, and after these were mixed, a constant temperature was set at 30° C., and 3 of the above sweet potato discs were placed therein, and a reaction was initiated.
# The buffers were 50 mM acetate buffers with pH 3.0, 3.5, 4.0, 4.5, 5.0, and 6.0, a 50 mM HEPES buffer with pH 7.0, and 50 mM Tris-HCl buffers with pH 8.0 and 9.0. After starting the reaction, stirring was carried out for 10 seconds with a test tube mixer every 15 minutes, and the degree of decay was visually observed. The strength of the maceration activity was expressed by the reciprocal of the time needed for 2 of the 3 sweet potato discs to almost uniformly decay.
# In order to evaluate the strength of the maceration activity of the pectin lyase of the present invention, in a Comparative Example, two commercially available enzyme preparations, Macerozyme R10 and Pectolyase Y-23 were dissolved in purified water so that the amount of protein in the respective enzyme solutions was 1.30 μg/ml, and these were subjected to the test described above.
# [2] = Test to determine the maximum temperature of pectin lyase / heat deactivation; assay type: physicochemical; conditions: 15 minutes at 121° C.
# [3] = Effects of metallic ions on pectin lyase activity; assay type: biochemical; conditions: Ca^2+ 1 mM, acetate buffer pH 4.5, 25° C.
# Experimental: Tests were conducted on the effects of metallic ions (Ca^2+, Ba^2+, Co^2+, Cu^2+, Mg^2+, Mn^2+, Zn^2+, and Fe^2+) of pectin lyase having maceration activity produced from the strain Aspergillus niger NBRC31125 on pectin lyase activity.
# The test method involved the use of chlorides of various metals, and adjusting their final concentration in the enzymatic reaction solution to 1 mM, and calculating the percentage of change in activity depending on the presence or absence of metallic ions. The enzymatic reaction solution used a 50 mM acetate buffer and a pH of 4.5, and measurements were taken at 10-minute intervals at 25° C.
# [4] = pH stability of pectin lyase; assay type: physicochemical; conditions: 24 hours at 4° C., activity then measured at pH 4.5, 25° C.
# Experimental: (§1) It should be noted that a 20 mM phosphate buffer was used for the pH 6.0-7.5 enzymatic reaction solution, and a 50 mM Tris-HCl buffer was used for the pH 7.5-9.5 enzymatic reaction solution. In cases where a McIlvaine buffer was used in a pH range of 3-6, the pectin lyase activity was measured in the same manner. Moreover, in order to determine the pH stability, the pH of enzyme solutions containing purified enzymes was adjusted to 3.0, 4.0, 5.0, 6.0, 7.0, 8.0, 9.0 and 10.0, using either HCl or NaOH. After allowing these enzyme solutions to stand for 24 hours at 4° C., the pectin lyase activity was measured at 25° C. using a 50 mM acetate buffer (pH 4.5).
# The pH stability was evaluated using the formula (activity after standing/activity before standing)×100. As a result, the specific activity and the pH stability of pectin lyase at various pH levels are represented in the graph in FIG. 1, where 1.0 is pectin lyase at pH 4.5. The optimal pH for pectin lyase activity according to the present invention was 4.5 in the acetate buffer, and 4.8 in the McIlvaine buffer, and was thus found to be stable in a pH range of 3-6.
# sweet potato discs [5] = assay: Maceration activity, sweet potato disc decay at 45° C. in McIlvaine buffer; assay type: biochemical; conditions: for specific maceration activity relative to N400 strain PLA: per 1 mg of protein, at optimal pH
# Experimental: The maceration activity was measured as described below. First, sweet potato discs were prepared in the same manner as described above. Then, 50 μL of enzyme solution and 450 μL of buffer were placed in a test tube and mixed, forming a test solution held at a constant temperature of 45° C., then 1 of the above sweet potato discs were placed therein, and a reaction was initiated. A McIlvaine buffer was used as the buffer, and the ionic strength of the test solution (total of 500 μL) was adjusted in advance to I=0.3 or 0.5, using KCl. After the reaction started, stirring was carried out in the manner described above, and the degree of decay was visually observed. Three specimens each were prepared under the various conditions, and reactions of specimens under identical conditions were initiated simultaneously. The strength of the maceration activity under those conditions was expressed by the reciprocal of the time needed for any 2 of the sweet potato discs of the 3 specimens under identical conditions (total of 3) to almost uniformly decay.
# [6] = Pectin lyase activity (absorbance at 235 nm, acetate buffer); assay type: biochemical
# Experimental: An example of a method for measuring pectin lyase activity is to measure over time the absorbance of the maximum absorption wavelength at 235 nm by unsaturated polygalacturonid formed as a result the substrate being degraded by enzymatic action. In the alternative, other publicly-known methods may be used.
# First, 50 μL of a solution of 2 wt. % of pectin (SIGMA/P9436, derived from citrus fruit) adjusted to pH 4.5 using NaOH or HCl, and 50 μL of enzyme solution were prepared. The 50 μL of wt. 2% pectin solution was mixed with 400 μL of 50 mM acetate buffer (pH 4.5) to prepare in advance a total of 450 μL, to which 50 μL of enzyme solution is to be added for a total of 500 μL as an enzymatic reaction solution to be used when measuring activity. In order to ensure uniform diffusion of the substrate in the reaction solution and to achieve stabilization, NaCl is added to obtain a final concentration of 0.1 M.
# The enzyme solution and the enzymatic reaction solution without the enzyme solution are each incubated for 10 minutes at 25° C., after which 50 μL of the enzyme solution is mixed with 450 μL of the enzymatic reaction solution without the enzyme solution. An enzymatic reaction is then initiated, and measurements of absorbance at 235 nm are taken continuously for 10 minutes at 25° C. using a spectrometer. The amount of resulting unsaturated polygalacturonid is computed using a molecular absorbance coefficient of 5200 (M^−1cm^−1) (Paloma Sanchez-Torres, Jeap Visser, and Jacques A. E. Benen, Biochem. J., 370, 331-337, Feb. 15, 2003), and 1 unit (1 U) of pectin lyase activity was set at the amount of unsaturated polygalacturonid formed per 1 μmmol of unsaturated digalacturonid per minute.
# In order to determine the optimal pH for pectin lyase activity of pectin lyase having maceration activity produced from the strain Aspergillus niger NBRC31125, the enzyme activity at various pH levels was measured using the above-described enzymatic reaction solution with modified pH (the enzymatic reaction solution described in [C] 2. (1) above).
# as §1
# [7] = Pectin lyase activity with HM pectin in McIlvaine buffer; assay type: biochemical
# Experimental: In order to determine the kM value of the isolated and purified pectin lyase having maceration activity (SIGMA/P9561, derived from citrus fruit, degree of esterification <90%), a McIlvaine buffer (0.1 M citric acid, 0.2 M phosphoric acid) adjusted to pH 4.8 was used in measuring the enzyme activity when the final concentration of pectin was changed.
# In addition, under conditions of 30° C., and within a pH range of 3.0-7.0, a McIlvaine buffer was used to measure the pectin lyase activity when the ionic strength of the various buffers was adjusted to 0.5 using KCl.
# The pectin lyase activity was measured as described below. First, a McIlvaine buffer was used in the enzymatic reaction solution, and an HM pectin substrate (SIGMA/P9561, derived from citrus fruit, degree of esterification <90%) was used to obtain a final concentration of 3 mg/mL. The ionic strength of the enzymatic reaction solution was adjusted in advance to I=0.3 or 0.5, using KCl, and the enzyme solution was 50 μL, and the total amount of the enzymatic reaction solution was 500 μL. Measurements were carried out in the same manner as in [C] 2. (2) (Paloma Sanchez-Tones, Jaap Visser, and Jacques A. E. Benen, Biochem. J., 370, 331-337, Feb. 15, 2003), except that the temperature was 30° C.
# [8] = McIlvaine buffer, I=0.3, 45° C.
# [9] = McIlvaine buffer pH 4.8, Lineweaver-Burk plot
molecule,measurement,setting,value
"pectin lyase of the present invention: Pectin lyase with maceration activity purified from Aspergillus niger NBRC31125; SEQ ID NO: 2; PLA mutant differing in 9 amino acids from N400 PLA (protein, listed as Aspergillus sp.) VGVSGSAEGFAEGVTGGGSATPVYPDTIDELVSYLGDDEARVIVLTKTFDFTDSEGTTTGTGCAPWGTASACQVAIDQDDWCENYEPDAPSVSVEYYNAGTLGITVTSNKSLIGEGSSGAIKGKGLRIVSGAENIIIQNIAVTDINAKYVWGGDAITLDDCDLVWIDHVTTARIGRQHYVLGTSADNRVSLTNNYIDGVSDYSATCDGYHYWAIYLDGDADLVTMKGNYIYHTSGRSPKVQDNTLLHAVNNYWYDISGHAFEIGEGGYVLAEGNVFQNVDTVLETYEGEAFTVPSTTAGEVCSTYLGRDCVINGFGSSGTFSEDSTSFLSDFEGKNIASASAYTSVASSVVANAGQGNL",optimal pH for maceration activity,"sweet potato discs [1]; 30° C., enzyme solution 1.30 μg/mL protein, buffers pH 3.0-9.0",~3.5
same,maceration activity per 390 ng of protein,"sweet potato discs [1]; at optimal pH, 30° C.",0.15 h⁻¹
same,specific maceration activity at pH 3.0 relative to Macerozyme R10,sweet potato discs [1]; pH 3.0,27.7 times
same,specific maceration activity at pH 3.0 relative to Pectolyase Y-23,sweet potato discs [1]; pH 3.0,15.6 times
same,maceration activity of enzyme solution used for pectin lysate,"sweet potato discs [1]; pH 3.0, 0.5 mL enzyme solution (500 ng purified pectin lyase; 2% Macerozyme A; 0.16% Pectolyase Y-23)",0.18 h⁻¹
same,maceration activity,sweet potato discs [1]; pH 5.0 or lower,maceration activity was observed
same,decay of sweet potato discs,"sweet potato discs [1]; pH 6.0, 7.0, 8.0, and 9.0",no decay occurred at all
same,deactivation by boiling treatment,[2],completely deactivated
same,Activity (%) vs. non-addition of ions,[3],120%
same,pH range in which stable,[4],3-6
same,optimal pH of maceration activity,sweet potato discs [5]; [8],4.0
same,specific maceration activity per 1 mg,sweet potato discs [5]; [8],7400 h⁻¹ mg⁻¹
same,optimal pH of maceration activity,"sweet potato discs [5]; McIlvaine buffer, I=0.5, 45° C.",5.0
same,ratio of the maceration activity to the pectin lyase activity,sweet potato discs [5]; maceration activity/pectin lyase activity of 1 mg of enzyme,72.5
same,specific maceration activity relative to N400 strain PLA,sweet potato discs [5],about 3 times
same,specific maceration activity relative to N400 strain PLA,sweet potato discs [5]; listed as protein of the present invention,3 times
same,specific maceration activity relative to N400 strain PLA,sweet potato discs [5]; listed as this pectin lyase,about 3 times
same,pectin lyase activity,"[6]; 50 mM acetate buffer pH 4.5, 25° C.",54.7 U/mg
same,optimal pH for pectin lyase activity,[6]; McIlvaine buffer,4.8
same,optimal pH for pectin lyase activity,[6]; acetate buffer,4.5
same,pectin lyase activity relative to crude enzyme solution,[6]; purified vs crude enzyme solution,61 times
same,optimal pH for pectin lyase activity,"[7]; 30° C., McIlvaine buffer pH 3.0-7.0, ionic strength 0.5 with KCl (FIG. 2)",4.8
same,specific pectin lyase activity,"[7]; 30° C., McIlvaine buffer, I=0.5, at optimal pH",102 U/mg
same,Km value,[7]; [9],5.4 mg/mL
same,Vmax value,[7]; [9],140 U/mg
same,optimal pH of pectin lyase activity,"[7]; McIlvaine buffer, I=0.3, 30° C.",4.0
same,optimal pH of pectin lyase activity,"[7]; McIlvaine buffer, I=0.5, 30° C.",5.0

# Source: US8691536B2, “Pectin lyase, pectin lyase polynucleotide, enzyme preparation, and method for producing single cells of plant tissue” (Bio-I Co., Ltd., priority 2009, dated 2014)
